From US20070105759

Biological target: human MC4 receptor (human), P32245
Assay: competition
Settings: modification not given

Chain of human MC4 receptor (human), P32245 (P32245 whole entry): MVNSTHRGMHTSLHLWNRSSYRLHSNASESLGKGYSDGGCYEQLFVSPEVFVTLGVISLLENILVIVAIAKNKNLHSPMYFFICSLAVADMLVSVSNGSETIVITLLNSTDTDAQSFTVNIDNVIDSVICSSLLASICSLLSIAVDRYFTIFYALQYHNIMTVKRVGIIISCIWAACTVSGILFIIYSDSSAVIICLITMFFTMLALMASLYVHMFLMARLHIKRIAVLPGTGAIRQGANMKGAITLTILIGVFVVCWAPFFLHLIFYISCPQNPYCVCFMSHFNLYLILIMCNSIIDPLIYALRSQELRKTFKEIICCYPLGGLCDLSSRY

Ki: 0.41 nM
Binder: YRCEHFRWC [Compound 77]
